Measurements as given in patent US20200299384A1 (published 2020).
Positions count from the first letter of the chain named.

B1: WBP3311_2.166.48 (antibody, IgG2a, V domains shown)
VH: QVQLQQSGPELVKPGASVKIACKASGYSFTTYYIHWVKQRPGQGLEWIGWIFPGNDNIKYSEKFKGKATLTADTSSSTAYMQLSSLTSEDSAVYFCAIDSVSIYYFDYWGQGTTLTVSS
VL: DIVMSQSPSSLAVSAGEKVTMSCKSSQSLLNSRTRKNYLAWYQQKPGQSPKLLIYWASTRKSGVPDRFTGSGSGTDFTLTINSVQAEDLAVYYCTQSFILRTFGGGTKLEIK
notes: Mouse monoclonal antibody from hybridoma; also called W3311-2.166.48; W3311_2.166.48
B2: WBP3311_2.400.5 (antibody, V domains shown)
VH: QVQLQQSGPELVNPGASVKISCKASGYSFTNYYLHWVKQRPGQGLEWIGWIFPESDNTKYNEKLKGKATLTADTSSDTAYMHLSSLTFEDSAVYFCARDSVGNYFFDFWGQGTTLTVSS
VL: B1 VL with S22R, L30V, S32N, S49P, K61E, N82S, T95A
notes: Mouse monoclonal antibody from hybridoma; also called W3311-2.400.5
B3: WBP331_2.488.33 (antibody, V domains shown)
VH: QVQLQQSGPELVKPGTSVKISCKASGFSFTNYYIHWVKQRPGQGPEWIGWIFPGTVNTKYNEKFKGKATLTADTSSNTAFMQLSSLTSADSAVYFCARDSVGIYYFDFWGLGTTLTVSS
VL: B1 VL with M21V, S32N, K61E, N82S
notes: Mouse monoclonal antibody from hybridoma; also called WBP3311_2.488.33; W3311-2.488.33
B4: WBP3311_2.383.47 (antibody, V domains shown)
VH: QVQLQQSGPELVKPGASVRISCKTSGFTFTNYYIHWVIQRPGQGLEWIGWISPENGNTKYNENFQDKATLTADISSSTAYMHLSSLTSEDSAVYFCARDGYSLYYFDYWGQGTTLTVSS
VL: B1 VL with A12T, T59I, K61V, D76T, N82S, S83G, F98H, I99T
notes: Mouse monoclonal antibody from hybridoma
B5: WBP3311_2.615.8 (antibody, V domains shown)
VH: QVQLQQSGPELVKPGTSMKISCKASGYSFTDFYTHWVRQRPGQGLEWIGWIFPGSDNIKYNEKFKGKATLTADTSSSTAYMQLSSLTSEDSAVYFCARDSVSVYYFDYWGQGTTLTVSS
VL: B1 VL with S14T, S32I, K61D, N82S
notes: Mouse monoclonal antibody from hybridoma; also called W3311-2.615.8
B6: WBP3311_2.482.5 (antibody, V domains shown)
VH: QVQLQQSGPELVKPGSSVKISCKPSGYTFTTYYIHWVKQRPGQGLEWIGWIFPGSDNIKYNENFKDKATLTADTSSSTAYMQLSSLTSEDSAVYFCARDSVSRYYFDYWGQGTILTVSS
VL: B1 VL with L30V, S32D, Q48L, K61E, N82S, T95A
notes: Mouse monoclonal antibody from hybridoma; also called W3311-2.482.5
B7: WBP3311_2.306.4 (antibody, IgG2b, V domains shown)
VH: QVQLQQSGPELVKPGASVRISCKASGFAFTDYYIHWVKQRPGQGLEWIGWISPGNVNTKYNENFKGRATLTADLSSSTAYMQLSSLTSEDSAVYFCARDGYSLYYFDYWGQGTTLTVSS
VL: B1 VL with A12T, K61Q, D76A, N82S, S83G, Y93F, F98H, I99T
notes: Mouse monoclonal antibody from hybridoma; also called W3311-2.306.4; W3311-2.306.4-mIgG2bK
B8: WBP3311_2.844.8 (antibody, V domains shown)
VH: B7 VH
VL: B1 VL with A12T, K61E, D76A, N82S, S83G, Y93F, F98H, I99T
notes: Mouse monoclonal antibody from hybridoma; also called W3311-2.844.8; clone 2.844.8
B9: WBP3311_2.166.48-z1-uIgG1K (antibody, V domains shown)
VH: QVQLVQSGAEVKKPGSSVKVSCKASGYSFTTYYIHWVRQAPGQGLEWMGWIFPGNDNIKYSEKFKGRVTITADKSTSTAYMELSSLRSEDTAVYYCAIDSVSIYYFDYWGQGTLVTVSS
VL: DIVMTQSPDSLAVSLGERATINCKSSQSLLNSRTRKNYLAWYQQKPGQPPKLLIYWASTRKSGVPDRFSGSGSGTDFTLTISSLQAEDVAVYYCTQSFILRTFGGGTKVEIK
notes: Humanized antibody; uIgG1K means human IgG1 constant region and kappa light chain; expressed in 293F cells; also called W3311-2.166.48-z1-uIgG1K
B10: WBP3311_2.306.4-z1-uIgG1K (antibody, V domains shown)
VH: QVQLVQSGAEVKKPGSSVKVSCKASGFAFTDYYIHWVRQAPGQGLEWMGWISPGNVNTKYNENFKGRVTITADKSTSTAYMELSSLRSEDTAVYYCARDGYSLYYFDYWGQGTLVTVSS
VL: B9 VL with K61Q, F98H, I99T
notes: Humanized antibody; uIgG1K means human IgG1 constant region and kappa light chain; expressed in 293F cells; also called W3311-2.306.4-z1-uIgG1K

biological target: T1, human CD3 expressed on cells (Jurkat cells; human CD4 T cells) (human, UniProt P07766 23-207); assay: flow cytometry on Jurkat cells
T1 construct: whole, on cells; also called human CD3 receptor on T cell surface; human CD3 expressing cells (Jurkat cells)
T1 sequence (P07766 23-207): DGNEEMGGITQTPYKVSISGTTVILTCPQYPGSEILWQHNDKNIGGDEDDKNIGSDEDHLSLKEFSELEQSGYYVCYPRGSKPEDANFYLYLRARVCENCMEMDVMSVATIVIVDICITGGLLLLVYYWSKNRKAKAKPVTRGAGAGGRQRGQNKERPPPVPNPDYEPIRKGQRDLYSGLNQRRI
Experimental: Various concentrations of testing mAbs were added to Jurkat cells, and then the binding activity of mAbs onto the surface of cells was detected by 2nd antibody-FITC. OKT3 was used as the positive control. The stained cells were analyzed by using a BD Biosciences FACSCanto II instrument and Flow Jo Version software. The binding EC₅₀ were calculated by using GraphPad Prism software equation: Nonlinear regression (curve fit)—log (agonist) vs. response-Variable slope.

Row | Binder | EC50 | MFI (FACS)
1 | B1 | 6.91 nM | 2140 MFI
2 | B2 | 2.5 nM | 2740 MFI
3 | B3 | 2.97 nM | 2270 MFI
4 | B4 | 0.91 nM | 2130 MFI
5 | B5 | 4.65 nM | 2220 MFI
6 | B6 | 3.71 nM | 2390 MFI
7 | B7 | 0.57 nM | 3360 MFI
8 | B8 | 0.77 nM | 984 MFI

biological target: T2, Human CD3 Gamma (CD3gamma) protein (human, UniProt P09693 23-116); assay: ELISA, antigen coated on plate, HRP-labelled 2nd antibody
T2 construct: extracellular domain; Bought protein
T2 sequence (P09693 23-116): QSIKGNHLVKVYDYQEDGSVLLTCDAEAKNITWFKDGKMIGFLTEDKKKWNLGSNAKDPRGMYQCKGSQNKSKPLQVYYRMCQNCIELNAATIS
Experimental: (§1) Human CD3epsilon, CD3delta and CD3gamma proteins were pre-coated in 96-well plates, respectively. The binding affinity of eight mAbs at various concentrations to these three different CD3 protein extracellular domain was detected by corresponding HRP labeled 2nd antibodies. The binding EC₅₀ (concentration of the test antibody when reaching half maximum binding) were analyzed by using GraphPad Prism software equation: Nonlinear regression (curve fit)—log (agonist) vs. response-Variable slope.

Row | Binder | ELISA (A450)
9 | B1 | 0.05 A450
10 | B2 | 0.05 A450
11 | B3 | 0.06 A450
12 | B4 | 0.05 A450
13 | B5 | 0.05 A450
14 | B6 | 0.06 A450
15 | B7 | 0.06 A450
16 | B8 | 0.07 A450

biological target: T3, Human CD3 delta (CD3 delta) protein (His Tag) (human, UniProt P04234 22-105); assay: as above
T3 construct: extracellular domain; Bought protein; not shown: His tag
T3 sequence (P04234 22-105, stated change not applied): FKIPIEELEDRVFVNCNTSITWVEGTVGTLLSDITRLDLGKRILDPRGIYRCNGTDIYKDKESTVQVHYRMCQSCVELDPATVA
Experimental: as §1

Row | Binder | ELISA (A450)
17 | B1 | 0.05 A450
18 | B2 | 0.05 A450
19 | B3 | 0.05 A450
20 | B4 | 0.05 A450
21 | B5 | 0.05 A450
22 | B6 | 0.05 A450
23 | B7 | 0.05 A450
24 | B8 | 0.06 A450

biological target: T4, Human CD3 epsilon (CD3epsilon) protein (His Tag) (human, UniProt P07766 23-126); assay: as above
T4 construct: extracellular domain; Bought protein; also called recombinant human CD3epsilon ECD; not shown: His tag
T4 sequence (P07766 23-126): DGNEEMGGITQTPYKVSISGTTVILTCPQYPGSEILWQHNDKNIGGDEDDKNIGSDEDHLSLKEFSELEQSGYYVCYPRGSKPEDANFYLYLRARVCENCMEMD
Experimental: as §1

Row | Binder | ELISA (A450)
25 | B1 | 1.64 A450
26 | B2 | 1.57 A450
27 | B3 | 1.7 A450
28 | B4 | 1.61 A450
29 | B5 | 1.55 A450
30 | B6 | 1.33 A450
31 | B7 | 1.46 A450
32 | B8 | 1.54 A450

biological target: T1, human CD3 expressed on cells (Jurkat …); assay: flow cytometry on Jurkat cells, one site saturation fit; set-up: Best fit-Bmax: unit not given here

Row | Binder | Best fit-Bmax | Kd
33 | B1 | 1.26e-10 | 1.67 nM
34 | B2 | 1.13e-10 | 0.934 nM
35 | B3 | 1.3e-10 | 1.32 nM
36 | B4 | 1.12e-10 | 0.403 nM
37 | B5 | 1.2e-10 | 2.23 nM
38 | B6 | 1.3e-10 | 2.29 nM
39 | B7 | 1.17e-10 | 0.191 nM
40 | B8 | 1.19e-10 | 0.252 nM

biological target: T5, Cynomolgus Monkey CD3 epsilon protein (Cynomolgus monkey, UniProt Q95LI5 22-117); assay: ELISA, antigen coated on plate
T5 construct: Bought protein; also called Cyno-Monkey CD3epsilon
T5 sequence (looked up): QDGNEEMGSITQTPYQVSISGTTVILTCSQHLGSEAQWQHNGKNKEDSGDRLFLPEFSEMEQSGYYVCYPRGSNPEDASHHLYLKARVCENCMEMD

Row | Binder | EC50
41 | B1 | 0.033 nM
42 | B2 | 0.024 nM
43 | B3 | 0.019 nM
44 | B4 | 0.028 nM
45 | B5 | 0.025 nM
46 | B6 | 0.028 nM
47 | B7 | 0.011 nM
48 | B8 | 0.009 nM

biological target: T4, Human CD3 epsilon (CD3epsilon) protein …; assay: ELISA, antigen coated on plate

Row | Binder | EC50
49 | B1 | 0.049 nM
50 | B2 | 0.053 nM
51 | B3 | 0.026 nM
52 | B4 | 0.074 nM
53 | B5 | 0.033 nM
54 | B6 | 0.069 nM
55 | B7 | 0.012 nM
56 | B8 | 0.011 nM

biological target: T5, Cynomolgus Monkey CD3 epsilon protein; assay: ELISA, antigen coated on plate; remark: another data set of the same source

Row | Binder | EC50
57 | B9 | 0.043 nM
58 | B10 | 0.043 nM
59 | B1 | 0.125 nM

biological target: T1, human CD3 expressed on cells (Jurkat …); assay: flow cytometry on Jurkat cells, one site saturation fit; remark: another data set of the same source

Row | Binder | Kd
60 | B9 | 0.201 nM
61 | B10 | 0.053 nM

biological target: T6, mouse CD3epsilon protein (mouse, UniProt P22646 22-108, limits assumed); assay: ELISA, antigen coated on plate
T6 sequence (P22646 22-108 limits assumed): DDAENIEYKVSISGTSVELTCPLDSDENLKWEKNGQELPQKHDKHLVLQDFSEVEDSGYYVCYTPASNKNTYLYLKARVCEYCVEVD

Row | Binder | ELISA (A450)
62 | B1 | 0.446 A450
63 | B5 | 0.471 A450

biological target: T5, Cynomolgus Monkey CD3 epsilon protein; assay: ELISA, antigen coated on plate; remark: another data set of the same source

Row | Binder | ELISA (A450)
64 | B1 | 2.81 A450
65 | B2 | 2.79 A450
66 | B3 | 2.83 A450
67 | B4 | 2.76 A450
68 | B5 | 2.71 A450
69 | B6 | 2.87 A450
70 | B7 | 2.82 A450
71 | B8 | 2.75 A450

biological target: T4, Human CD3 epsilon (CD3epsilon) protein …; assay: ELISA, antigen coated on plate; remark: another data set of the same source

Row | Binder | ELISA (A450)
72 | B1 | 2.76 A450
73 | B2 | 2.83 A450
74 | B3 | 2.91 A450
75 | B4 | 2.79 A450
76 | B5 | 2.82 A450
77 | B6 | 2.95 A450
78 | B7 | 2.91 A450
79 | B8 | 2.92 A450

biological target: T1, human CD3 expressed on cells (Jurkat …); assay: flow cytometry on human CD4 T cells

Row | Binder | EC50
80 | B9 | 1.01 nM
81 | B10 | 0.253 nM
82 | B1 | 3.51 nM
83 | B7 | 0.461 nM

biological target: T2, Human CD3 Gamma (CD3gamma) protein; assay: ELISA, antigen coated on plate

Row | Binder | binding result
84 | B1 | no binding
85 | B2 | no binding
86 | B3 | no binding
87 | B4 | no binding
88 | B5 | no binding
89 | B6 | no binding
90 | B7 | no binding
91 | B8 | no binding

biological target: T6, mouse CD3epsilon protein; assay: ELISA, antigen coated on plate; remark: another data set of the same source

Row | Binder | binding result
92 | B1 | no binding
93 | B5 | no binding

biological target: T3, Human CD3 delta (CD3 delta) protein …; assay: ELISA, antigen coated on plate

Row | Binder | binding result
94 | B1 | no binding
95 | B2 | no binding
96 | B3 | no binding
97 | B4 | no binding
98 | B5 | no binding
99 | B6 | no binding
100 | B7 | no binding
101 | B8 | no binding
